# According to publication PMC7295619:
# Biological target: Porcine circovirus type 3 (PCV3) capsid protein (porcine circovirus type 3)
# Test: cryo-EM structure; in vitro assembled full-length PCV3-VLP, 1 mg/ml, Titan Krios 300 kV, EMAN2 reconstruction with icosahedral symmetry applied, ~8.5 Å
substance,measurement,value
Porcine circovirus type 3 (PCV3) capsid protein (natural protein),stoichiometry N,60
